For 1 molecule, activity when freeze-dried results are on record in US20250003940A1, “BIOSENSOR, BIOSENSOR COMPONENTS, AND USE THEREOF” (VICTORIA LINK LIMITED, priority 2021, published 2025).

The data set can be described thus: Enzyme activity after freeze-drying with stabilisers. The format is physicochemical. Conditions: freeze-dried with different stabilisers, compared with non-freeze-dried standard. How it is done:
FIG. 23A: RcArgZ activity levels after freeze-drying with different additives. RcArgZ was purified and exchanged into the freeze-drying buffers. The buffers contained 50 mM Tris-Cl pH 8.0, 1 mM MgCl2, and one of the stabilisers. The stabilisers were the following: 1 mM mannitol, 40 mg/mL mannitol, 1 mM sucrose, 10 mg/mL sucrose, 1 mM trehalose, 20 mg/mL trehalose, or 20 mg/mL sucrose and 40 mg/mL mannitol. The sample was then snap frozen using liquid nitrogen before putting in a benchtop freeze-dryer. The sample was left drying for 18-24 hours. The activity of the freeze-dried enzymes was tested and compared with the non-freeze-dried standard (in their corresponding storage buffer).
FIG. 23B: HpGS activity levels after freeze-drying with different additives. HpGS was purified and buffer exchanged to the freeze-drying buffers. The buffers contained 50 mM Tris-Cl pH 8.0, 1 mM MgCl2, and the stabilisers. The stabilisers were the following: 1 mM mannitol, 40 mg/mL mannitol, 1 mM sucrose, 10 mg/mL sucrose, 1 mM trehalose, 20 mg/mL trehalose, or 20 mg/mL sucrose and 40 mg/mL mannitol. The sample was then snap frozen using liquid nitrogen before putting in a benchtop freeze-dryer. The sample was left drying for 18-24 hours. The activity of the freeze-dried enzymes was tested and compared with the non-freeze-dried standard (in their corresponding storage buffer). […]

B1: BpsA: Streptomyces lavendulae blue pigment synthetase A, converts glutamine to indigoidine, SEQ ID NO: 1 (protein, UniProt Q1MWN4 1-1282, looked up)
Indigoidine synthase: MTLQETSVLEPTLQGTTTLPGLLAQRVAEHPEAIAVAYRDDKLTFRELASRSAALADYLEHLGVSADDCVGLFVEPSIDLMVGAWGILNAGAAYLPLSPEYPEDRLRYMIENSETKIILAQQRLVSRLRELAPKDVTIVTLRESEAFVRPEGTEAPAARSARPDTLAYVIYTSGSTGKPKGVMIEHRSIVNQLGWLRETYAIDRSKVILQKTPMSFDAAQWEILSPANGATVVMGAPGVYADPEGLIETIVKHNVTTLQCVPTLLQGLIDTEKFPECVSLQQIFSGGEALSRLLAIQTTQEMPGRALINVYGPTETTINSSSFPVDPADLDEGPQSISIGSPVHGTTYHILDKETLKPVGVGEIGELYIGGIQLARGYLHRDDLTAERFLEIELEEGAEPVRLYKTGDLGQWNNDGTVQFAGRADNQVKLRGYRVELDEISLAIENHDWVRNAAVIVKNDGRTGFQNLIACIELSEKEAALMDQGNHGSHHASKKSKLQVKAQLSNPGLRDDAELAARPAFDLEGAEPTPEQRARVFARKTYRFYEGGAVTQADLLGLLGATVTAGYSRKAADLAPAELGQILRWFGQYISEERLLPKYGYASPGALYATQMYFELEGVGGLKPGYYYYQPVRHQLVLISEREATGKATAQIHFIGKKSGIEPVYKNNILEVLEIETGHMVGLFEQILPAYGLDIHDRAYEPAVKDLLDVADEDYYLGTFELVPHAGARDDQAEVYVQTHGGKVAGLPEGQYRYENGELTRFSDDIVLKKHVIAINQSVYQAASFGISVYSRAEEEWLKYITLGKKLQHLMMNGLNLGFMSSGYSSKTGNPLPASRRMDAVLGANGVDSAPMYFFVGGRISDEQIGHEGMREDSVHMRGPAELIRDDLVSFLPDYMIPNRVVVFDRLPLSANGKIDVKALAASDQVNAELVERPFVAPRTETEKEIAAVWEKALRRENASVQDDFFESGGNSLIAVGLVRELNARLGVSLPLQSVLESPTIEKLARRLEREVAQESSRFVRLHAETGKARPVICWPGLGGYPMNLRSLAGEIGLGRSFYGVQSYGINEGETPYETITEMAKKDIEALKEIQPAGPYTLWGYSFGARVAFETAYQLEQAGEKVDNLFLIAPGSPKVRAENGKVWGREASFANRGYTTILFSVFTGTISGPDLDRCLETVTDEASFAEFISELKGIDVDLARRIISVVGQTYEFEYSFHELAERTLQAPISIFKAVGDDYSFLENSSGYSAEPPTVIDLDADHYSLLREDIGELVKHIRYLLGE
B1: the activity when freeze-dried result was “able to retain activity”.
